In IntAct's records for PubMed 21216997:

Key:
ftsz_ecoli ftsZ [1] = biological target: ftsz_ecoli ftsZ (UniProt P0A9A6)
ftsz_ecoli ftsZ [2] = biological target: ftsz_ecoli ftsZ (UniProt P0A9A6); remark: listed apart in the source

Chain of ftsz_ecoli ftsZ (P0A9A6 whole entry): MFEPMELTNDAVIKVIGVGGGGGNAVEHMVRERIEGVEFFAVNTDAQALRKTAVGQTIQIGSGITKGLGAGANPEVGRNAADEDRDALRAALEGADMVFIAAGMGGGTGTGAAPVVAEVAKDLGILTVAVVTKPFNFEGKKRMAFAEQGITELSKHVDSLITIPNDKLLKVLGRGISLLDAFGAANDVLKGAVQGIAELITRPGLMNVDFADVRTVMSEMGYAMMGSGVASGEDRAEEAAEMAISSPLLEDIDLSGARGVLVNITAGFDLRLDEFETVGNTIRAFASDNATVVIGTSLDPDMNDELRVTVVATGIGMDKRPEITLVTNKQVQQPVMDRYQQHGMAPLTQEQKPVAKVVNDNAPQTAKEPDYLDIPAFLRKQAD

effect of a mutation on the interaction (ftsz_ecoli ftsZ [1]): decreasing interaction strength
effect of a mutation on the interaction (ftsz_ecoli ftsZ [2]): disrupting interaction
Substance: Cell division protein ZapC (Escherichia coli (strain K12)), P75862 L22P
